The data set “crystal structure” deals with the molecule itself. Kind of data set: crystal structure.
Another data set addresses T1, Spt4 (residues 1-99) (S. cerevisiae, UniProt P32914 1-99).
T1 sequence (looked up): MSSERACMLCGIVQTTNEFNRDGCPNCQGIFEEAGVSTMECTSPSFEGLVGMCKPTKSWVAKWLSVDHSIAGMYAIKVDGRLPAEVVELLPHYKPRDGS
Kind of data set: crystal structure.

B1: Spt4/Spt5NGN fusion protein (other, S. cerevisiae)
chain: MSSERACMLCGIVQTTNEFNRDGCPNCQGIFEEAGVSTMECTSPSFEGLVGMCKPTKSWVAKWLSVDHSIAGMYAIKVDGRLPAEVVELLPHYKPRDGSGSATIWGVRCRPGKEKELIRKLLKKKFNLDRAMGKKKLKILSIFQRDNYTGRIYIEAPKQSVIEKFCNGVPDIYISQKLLIPVQELPLLLKPN
Take B1: the binding result in the data set “crystal structure” was “binds”.

B2: Spt5NGN domain (residues 285-375) (domain or fragment, S. cerevisiae, UniProt P27692 285-375, looked up)
chain: ATIWGVRCRPGKEKELIRKLLKKKFNLDRAMGKKKLKILSIFQRDNYTGRIYIEAPKQSVIEKFCNGVPDIYISQKLLIPVQELPLLLKPN
With B2, in the data set with Spt4 (residues 1-99), the binding result was “binds”.
